Experimental data: the DeepSol protein solubility set

experiment: soluble on expression in E. coli; label from the status in PepcDB or PDB records

Sequence	soluble on expression in E. coli
MVIGVPKEIKTLENRVALTPGGVESLVRRGHTVLVERGAGEGSGLSDAEYARAGAELVGREEAWGAEMVVKVKEPLPEEYGFLREGLILFTYLHLAADRGLTEAMLRSGVTGIAYETVQLPDGTLPLLVPMSEVAGRMAPQVGAQFLEKPKGGRGVLLGGVPGVAPASVVILGGGTVGTNAAKIALGMGAQVTILDVNHKRLQYLDDVFGGRVITLTATEANIKKSVQHADLLIGAVLVPGAKAPKLVTRDMLSLMKEGAVIVDVAVDQGGCVETIRPTTHAEPTYVVDGVVHYGVANMPGAVPRTSTFALTNQTLPYVLKLAEKGLDALLEDAALLKGLNTHKGRLTHPGVAEAFGLPYTPPEEALRG	soluble
MAKVVSKANQSQGMLMFKLTLQQNFAIGTLKVREIVPYMPTTKIPYSHHHVIGTVTIRDLTVPVIDMSAAVGFRPITQEEYKNCYLIVTDCLRTVVAFMVRSIEKIIECDWKAIETPPASAGKNIFVTGITRYGDQTVQMLDVELLLSKIYPQYENANIPMLTDVERERLKA	not soluble
MGSDKIHHHHHHMSIIDLTKLEQKVATMWDSILTNSPFIHEVLDGKATKALYAIYMTETYHYTKHNAKNQALVGIMGKDLPGKYLSFCFHHAHEEAGHELMALSDIASIGFDREDVLSSKPLPATETLIAYLYWISATGNPVQRLGYSYWAENVYGYIDPVLKAIQSTLDLTPQSMKFFIAHSKIDAKHAEEVNEMLHEVCKTQEDVDSVVAVMENSLVLTARILDDVWKEYQLFQSGASDRYAFLRDNA	not soluble
MPVSGYLRIKGKRVGVEIFPFQAYHSQIKEVRQQVGNMAILPLRTQVRGPAPSANIESDIIDESLYYFKANVFFRTYEIKSDVDRVLIYVTLYITECLKKLNRSTSKAQGQQDMYSLAISKFDIPGDAGFPLNAVYAKPQTAQDADLMRQYLLQLRHETGNRVLEKVFNTEDGKPNKWWTCFAKKKFMEKSLAGPGQLEHHHHHH	not soluble
MGSSHHHHHHSSGLVPRGSHMLESSGNRDIAQVVTENNKNYLVLYASQTGTAEDYAKKFSKELVAKFNLNVMCADVENYDFESLNDVPVIVSIFISTYGEGDFPDGAVNFEDFICNAEAGALSNLRYNMFGLGNSTYEFFNGAAKKAEKHLSAAGAIRLGKLGEADDGAGTTDEDYMAWKDSILEVLKDELGVEATGEESSIRQYELVVHTDIDAAKVYMGEMGRLKSYENQKPPFDAKNPFLAAVTTNRKLNQGTERHLMHLELDISDSKIRYESGDHVAVYPANDSALVNQLGKILGADLDVVMSLNNLDEESNKKHPFPCPTSYRTALTYYLDITNPPRTNVLYELAQYASEPSEQELLRKMASSSGEGKELYLSWVVEARRHILAILQDCPSLRPPIDHLCELLPRLQARYYSIASSSKVHPNSVHICAVVVEYETKAGRINKGVATNWLRAKEPAGENGGRALVPMFVRKSQFRLPFKATTPVIMVGPGTGVAPFIGFIQERAWLRQQGKEVGETLLYYGCRRSDEDYLYREELAQFHRDGALTQLNVAFSREQSHKVYVQHLLKQDREHLWKLIEGGAHIYVCGDARNMARDVQNTFYDIVAELGAMEHAQAVDYIKKLMTKGRYSLDVWS	soluble
GAMGQTTFTELMQQLFLKLGLNHQVNENDVYTFEVDGHIQVLIACYHQQWVQLFSELGADLPTNDNLFGEHWPAHVQGRLDGKSILWSQQSLVGLDIDEMQAWLERFIDDIEQRKEPQNTKFQPNSTSPILFI	soluble
MGSDKIHHHHHHMSNRIKNIHYGTQRQQLKNLTKKEYQALREMCFLAKNLYNVGTYNVRQHYFNQGEHLNYEANYHVCKENENYKLLNSNIAQQILKEVDSSFRSFFGLIKLAKEGKYDFRGIKSPKYLDKEGFFSIIIGQIRIKEDGILNVPMSPAFKKLYGKVSIKVPQNILEKKIKEIRIIPKHKARFFEIQYCYEIPKSEEVSNQKNALAIDLGLENLCTCVTNLGDSFIIDGKRLKSVNQWANKQNDKIEALKLKKNITAITRKQFKVWNKRNNQVKDYVNKTCFYIIDYCVKNNIGNLIVGYNAKLEKSDNMERKIYRNFIRIPFGEIKGKLEYLCKIKNINFIRQEESYTSKSDFFADDFLPDINVDNVKKYDFKGERITRGQYKSSVGIIINADVNASLNILKKSQVVNLSNLQNNPQILKQPQRVRIS	not soluble
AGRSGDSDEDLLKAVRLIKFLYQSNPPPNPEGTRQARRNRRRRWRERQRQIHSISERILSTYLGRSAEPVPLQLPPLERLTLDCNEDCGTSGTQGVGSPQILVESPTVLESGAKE	soluble
MDLPYYHGCLTKRECEALLLKGGVDGNFLIRDSESVPGALCLCVSFKKLVYSYRIFREKHGYYRIETDAHTPRTIFPNLQELVSKYGKPGQGLVVHLSNPIMR	soluble
MKDLVDTTEMYLRTIYELEEEGVTPLRARIAERLEQSGPTVSQTVARMERDGLVVVASDRSLQMTPTGRTLATAVMRKHRLAERLLTDIIGLDINKVHDEASRWEHVMSDEVERRLVKVLKDVSRSPFGNPIPGLDELGVGNSDAAAPGTRVIDAATSMPRKVRIVQINEIFQVETDQFTQLLDADIRVGSEVEIVDRDGHITLSHNGKDVELLDDLAHTIRIEEL	soluble
MGSDKIHHHHHHMSILGLFGCDNGRNIAIICKNNPEICADLHKDSWCLAEKTQLIRDRYTLKDTTHPTGKQLYLQLTYLEDYSRCIELAAGVQHIIHTSRTADRARAFRLSTENLTQLQEQTRERQDPFMSYYQWTRFGDTQALNRLLEHENAGEVTDPFLLAQIATYYSNRDAIKSQQLYLKVLSEIQYDDFDVNWLLGLASTFRHTQQFDKTYMLTKANLLLTQQKYSEDKMLALLSNNKTLAAKLDKYAQTLIDALKNGNYSTSSVRKWLEPAPQILPAETITTEPVPEK	not soluble
MGSDKIHHHHHHMTAQSSHMLVLQSTVTSAFKTIASEKQGLEALEEALLGYLSSAFQAAVQTIRNANGHVVITGLGKSGHIGAKIAATLASTGTPAFFVHAAEANHGDLGMIGSDDVILALSWSGETSELSGIINHAARFRTPLIAMTSGEHSVLGRQADIVLLLPKIEEACPHGLAPTTSTIMQLAMGDALAVALLEMRGFTATDFKIYHPGGSLGASLKYVRDIMHQGESIPLVAQGTAMAKAMSVLVEKHFGCVGVVNQEGELIGIVTDGDLARNIHVNLSKFNVDELMTKDPKIVEPNTLVGAATAFINEHHIGAFFVVENKKPIGIVHFHDLLRIGAA	not soluble
MGSDKIHHHHHHMIDPESLEALEAVVDAGSLSAAAGQLNKAVSAVGYHLRRLEEQIGVPLLDRSGYRLALTPEGKSVLAEGRPILERLRALGTFAERYHGGWEHQLRIVYDGALPAEVVIGAINALVEAGAPTHIELNVAYLGAVPFEFDRKQADVMIATAWEPRLDLIGHRLATLGFSLCCAAGHPLTMRTNVSLEELQRETELIIPGLAEDRSFDARHFRSRRILKVSDFNTKLIAIRRGLGFGWLPDYLASDLVRKGNLARVRLEGGNSYELQPVFALHRGAAPGRARQMLLDMLLLATWDTYVKPE	not soluble
MGSDKIHHHHHHMDISDIAANDYVEVDAEQRLGKVRSLFERENPKGVIVTEAGAYDGVITERQLIQSHIGDDTRVAAMVTDAPKVSRTEDVRETARMLVEGGTKIAPVFEAGSLWGVITEDAILDAVLANLDALDVRDIYTEHVVTVDEDDSMGRVINLLREHGISRLPVVDDAGLLSGIVTRYDIVDFVVRDTEKTTVGDRSGEIERLLDLPVSDEMTSPVKTASFDDSVRDAVDDMLAHDYSGVIVTPDDDERAVGGILTKTDVLRALSYTEEEHLDVQITNIDLLDTLSRQEVRERIENVVAKYGDMDVHHAHVRLSKHKEKLRGTPLIQSQIRLRTNKGQIAGTGEGYGADNSFHVALDKLERNVLELKGIEHDEEYEGQLLRKLNDL	not soluble
GSRLNPVQLELLNKLHLETKLNAEYTFMLAEQSNWNYEVAIKGFQSSMNGIPREAFVQF	soluble
MAKINELLRESTTTNSNSIGRPNLVALTRATTKLIYSDIVATQRTNQPVAAFYGIKYLNPDNEFTFKTGATYAGEAGYVDREQITELTEESKLTLNKGDLFKYNNIVYKVLEDTPFATIEESDLELALQIAIVLLKVRLFSDAASTSKFESSDSEIADARFQINKWQTAVKSRKLKTGITVELAQDLEANGFDAPNFLEDLLATEMADEINKDILQSLITVSKRYKVTGITDSGFIDLSYASAPEAGRSLYRMVCEMVSHIQKESTYTATFCVASARAAAILAASGWLKHKPEDDKYLSQNAYGFLANGLPLYCDTNSPLDYVIVGVVENIGEKEIVGSIFYAPYTEGLDLDDPEHVGAFKVVVDPESLQPSIGLLVRYALSANPYTVAKDEKEARIIDGGDMDKMAGRSDLSVLLGVKLPKIIIDE	soluble
MPQDVDFHIPLPGRQSPDHARAEAEQLAWPRSLGLIRSDAAAERHLRGGYADLASRFYPHATGADLDLGVDLMSWFFLFDDLFDGPRGENPEDTKQLTDQVAAALDGPLPDTAPPIAHGFADIWRRTCEGMTPAWCARSARHWRNYFDGYVDEAESRFWNAPCDSAAQYLAMRRHTIGVQPTVDLAERAGRFEVPHRVFDSAVMSAMLQIAVDVNLLLNDIASLEKEEARGEQNNMVMILRREHGWSKSRSVSHMQNEVRARLEQYLLLESCLPKVGEIYQLDTAEREALERYRTDAVRTVIRGSYDWHRSSGRYDAEFALAAGAQGYLEELGSSAH	soluble
MSDGKEELVNRAKLAEQAERYDDMAASMKKVTELGAELSNEERNLLSVAYKNVVGARRSSWRVISSIEQKTEGSEKKQQMAKEYREKVEKELRDICQDVLNLLDKFLIPKAGAAESKVFYLKMKGDYYRYLAEVASGDDRNSVVEKSQQSYQEAFDIAKDKMQPTHPIRLGLALNFSVFFYEILNAPDKACQLAKQAFDDAIAELDTLNEDSYKDSTLIMQLLRDNLTLWTSDAATDDTDANETEGGN	soluble
MNPFDMLSPGYQDIWLRLQSERLLLEKRISAKEGELKNLMQFVQNPPFLNFPQYMLPQGPLGAQNQ	not soluble
MSPAFRAMDVEPRAKGVLLEPFVHQVGGHSCVLRFNETTLCKPLVPREHQFYETLPAEMRKFTPQYKGVVSVRFEEDEDRNLCLIAYPLKGDHGIVDIVDNSDCEPKSKLLRWTTNKKHHVLETEKTPKDWVRQHRKEEKMKSHKLEEEFEWLKKSEVLYYTVEKKGNISSQLKHYNPWSMKCHQQQLQRMKENAKHRNQYKFILLENLTSRYEVPCVLDLKMGTRQHGDDASEEKAANQIRKCQQSTSAVIGVRVCGMQVYQAGSGQLMFMNKYHGRKLSVQGFKEALFQFFHNGRYLRRELLGPVLKKLTELKAVLERQESYRFYSSSLLVIYDGKERPEVVLDSDAEDLEDLSEESADESAGAYAYKPIGASSVDVRMIDFAHTTCRLYGEDTVVHEGQDAGYIFGLQSLIDIVTEISEESGE	not soluble
MGSDKIHHHHHHAKTTTATTTQASVKKQTYTILSSSFYKTAKTYHTKDAKPVVYKAVMGADRPTMTLTAKGKLKAGTTYKVTKQVKVKINAKKSQKYSYVKGQGWVVSSKLTAGKFKAASGVKKTATKYTIVSVTALKKAKTVHTKDARPVVYKAAVAADRPTMTLTTNGKLKAATTYKVTKQAKLKNAAKKTVAFSYVSGHGWVLQRDLTNGQFMNAD	not soluble
MGSDKIHHHHHHMDKIIGLGNALIDVLATLKDDTLLDELELPKGSMQLIDDAKLQQINTKFSQMKTHLATGGSAGNAILGLACLGAGTGFIGKVGNDHYGDFFRKNLQKNNIEDNLLTSEQLPSGVASTFISQDGERTFGTYLGAAASLKAEDLTLEMFKGYAYLFIEGYLVQDHEMILHAIELAKEAGLQICLDMASYNIVENDLEFFSLLINKYVDIVFANEEEAKAFTGEEPEEALRVIAKKCSIAIVKVGANGSYIRKGTEEIKVSAIPVEKVLDTTGAGDYFAAGFLYGLTCGYSLEKCAKIGSILSGNVIQVIGTTISPERWDEIKLNINKVLAE	not soluble
